Results published in publication PMC11972402 (Nature Communications, 2025).

Target: T1, Saccharomyces cerevisiae Rat1-Rai1 complex (Saccharomyces cerevisiae, UniProt Q02792 1-981; P53063 1-387)
T1 sequence (looked up) 1: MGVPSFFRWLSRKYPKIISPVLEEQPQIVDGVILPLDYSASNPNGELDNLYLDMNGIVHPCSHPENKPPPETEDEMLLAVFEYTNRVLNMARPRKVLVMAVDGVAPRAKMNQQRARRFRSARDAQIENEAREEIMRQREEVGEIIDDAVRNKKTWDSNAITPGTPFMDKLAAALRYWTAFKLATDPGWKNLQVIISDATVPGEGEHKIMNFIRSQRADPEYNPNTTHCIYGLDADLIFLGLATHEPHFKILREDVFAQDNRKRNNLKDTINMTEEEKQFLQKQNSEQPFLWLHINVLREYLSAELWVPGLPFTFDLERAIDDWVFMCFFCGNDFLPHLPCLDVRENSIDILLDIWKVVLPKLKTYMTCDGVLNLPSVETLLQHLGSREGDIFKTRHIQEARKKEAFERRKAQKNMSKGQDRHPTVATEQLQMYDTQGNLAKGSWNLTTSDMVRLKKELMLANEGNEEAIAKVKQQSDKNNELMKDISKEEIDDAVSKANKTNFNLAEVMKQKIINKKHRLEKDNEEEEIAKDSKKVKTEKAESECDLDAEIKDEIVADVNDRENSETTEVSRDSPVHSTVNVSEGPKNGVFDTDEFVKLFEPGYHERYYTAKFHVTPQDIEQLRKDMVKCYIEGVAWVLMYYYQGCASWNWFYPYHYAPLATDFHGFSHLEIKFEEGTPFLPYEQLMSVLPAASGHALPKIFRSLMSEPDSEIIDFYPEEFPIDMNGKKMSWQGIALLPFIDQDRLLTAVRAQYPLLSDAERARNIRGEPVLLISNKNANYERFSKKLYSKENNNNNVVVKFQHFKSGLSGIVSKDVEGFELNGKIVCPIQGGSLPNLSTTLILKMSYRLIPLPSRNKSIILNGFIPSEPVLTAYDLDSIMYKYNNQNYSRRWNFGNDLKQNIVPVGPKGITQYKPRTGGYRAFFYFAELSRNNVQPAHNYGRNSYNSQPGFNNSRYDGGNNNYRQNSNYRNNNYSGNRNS
T1 sequence (looked up) 2: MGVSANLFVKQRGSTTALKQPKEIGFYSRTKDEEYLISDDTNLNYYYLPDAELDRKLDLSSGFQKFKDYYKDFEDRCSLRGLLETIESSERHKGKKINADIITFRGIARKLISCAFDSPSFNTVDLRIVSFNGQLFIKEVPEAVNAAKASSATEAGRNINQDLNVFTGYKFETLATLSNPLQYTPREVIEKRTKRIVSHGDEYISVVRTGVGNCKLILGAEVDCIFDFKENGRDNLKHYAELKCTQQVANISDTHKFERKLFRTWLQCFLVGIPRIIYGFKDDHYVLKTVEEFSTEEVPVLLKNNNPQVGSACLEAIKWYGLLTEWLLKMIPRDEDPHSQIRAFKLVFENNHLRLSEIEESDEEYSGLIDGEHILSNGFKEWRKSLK
Assay: pull-down

binding result: binds
B1: N-terminal 6×His-MBP tagged S. cerevisiae Rtt103 RIS (243-272) wild-type (domain or fragment, Saccharomyces cerevisiae, UniProt Q05543 243-272, looked up)
chain: SAKDPSRLNKNVDEDNIIPTYEVGDGDDDD
